The record followed here is the supplement of paper PMC12042874.

± gives the uncertainty stated by the source.

The nature of this series: amyloid nucleation score (Sup35N fusion, yeast selection) (log enrichment); library NNK2; higher = more nucleation; inactive = no reads after selection. An outline of the steps:
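On medium lacking adenine and uracil, psi-negative yeast expressing peptides of 20 random codons fused to Sup35N were grown 7 days at 30°C after a 24-hour induction with 100 μM copper sulfate. Illumina sequencing of input and output plasmid inserts gave the reads, and sequences under 100 input reads were excluded. The nucleation score is the DiMSum log enrichment of output over input reads, centred on the mode score of non-aggregating sequences.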

Regarding PCTMDYGVPRT, the amyloid nucleation score is 0.585 ± 0.66.
As for RVFFTVCGMHTGSSKKLAGL, the figure is 1.23 ± 0.21.
As for LGIYIVGTNVSSSWLFLCNR, the figure is 0.476 ± 0.4.
As for LKRRPFDAFNVRMVLVNECG, the entry is “inactive”; as for AGDAAN, “inactive”; as for GVVLNLDTWLVDEVPDGVRM, 0.057 ± 0.76.
For GFLNLCRSTSRELMCEMYSA, the amyloid nucleation score was -0.651 ± 1.1.
RYVQLIDHWSNGIVKVVGVL had an amyloid nucleation score of 0.783 ± 0.56.
In the case of YIMSFRY it was -0.592 ± 0.79; in that of RINVPDVRMDPNYQIHF, -1.02 ± 0.36; in that of YVCTRWVAYYLEWYGLDGPV, 0.665 ± 0.45.
As to FGTKHFVICSL, the amyloid nucleation score was -0.989 ± 0.76.
Regarding RGIKNVWNL, the amyloid nucleation score is 0.461 ± 0.54.
As for DVHFCNNLLLKRRRGSVVA, the figure is -0.153 ± 0.41; as for SGTKPLCKQ, 1.22 ± 0.34.
In the case of NSVETLMNQRCWVCHTCCVK, the amyloid nucleation score was -0.472 ± 0.64.
As to GVVNSRYALFNCRLEFKDVL, the amyloid nucleation score is 9.742 ± 0.071.
FHRNMMVLQCIRRVL: the amyloid nucleation score was found to be 0.016 ± 1.1.
In turn, NHSGRYGRRLILRLGFFGVG registered an amyloid nucleation score of -0.655 ± 0.28.
In turn, FHGHQPYFWNVL came in with an amyloid nucleation score of 0.326 ± 0.54.
As for YKLGVKPMKAG, the figure is -0.224 ± 0.79; as for GDHVVFNWRAHSSSRIVSSY, 1.17 ± 0.68; as for CPLRLTRGLKCRVYINWEHQ, 0.354 ± 0.48.
Consider QFWVPTLEAWSWTSAFPYMP, for which the amyloid nucleation score is -0.536 ± 1.1.
Consider LCVYLYWF, for which the amyloid nucleation score was -1.01 ± 0.39.
LGWRVGWYASDAFYKPEWFD yielded an amyloid nucleation score of -0.53 ± 0.41.
For the substance FRNAGIKRCPFVTRDQSTHF, the amyloid nucleation score result is “inactive”.
In the case of DRGYKSYGG it was 0.775 ± 0.74; in that of LFDFGETVVIVLHVHSMLCL, 4.41 ± 0.092.
The substance VRLPLIVYLKSAYTSPPWGS returned an amyloid nucleation score of -0.702 ± 1.1.
In the case of LAGNKYPWLS it was -1.1 ± 0.53; in that of VMIWVTA, 0.637 ± 0.25; in that of DLGYDLTINWAFERLADRVN, -1.46 ± 1.
Regarding PSVCKWCYMKCRRRTCFSQL, the amyloid nucleation score entry was “inactive”.
As for PFMLSVHFALYMSDYIYMHL, the amyloid nucleation score is -0.02 ± 0.46.
Substance KLMFRHV gave an amyloid nucleation score of 5.01 ± 0.081.
The substance SLFQCNGSCVIYSYGILLYL showed an amyloid nucleation score of 7.71 ± 0.082.
Consider RYVVCNGRNLELLDFMNSRS, for which the amyloid nucleation score is -0.74 ± 1.1.
In the case of YHCVEYLGARL it was 0.083 ± 0.63; in that of HNSNYHIYGWVMVRRRIGYI, “inactive”.
Regarding LGTAKNFIPSGNVRLLALQF, the amyloid nucleation score entry is “inactive”.
Take LRVGSCNVTSLMGNLVGLDS: the amyloid nucleation score is 1.37 ± 0.42.
For SGDFI, the amyloid nucleation score result is “inactive”.
Regarding DYDNW, the amyloid nucleation score was -0.618 ± 1.1.
As for MVFAPIVYEIKRDIKMLFGA, the figure is 5.947 ± 0.029; as for EGLRVEMCYGKNVSFMIGSY, 5.727 ± 0.049; as for NNNFMRTR, 2.44 ± 0.066.
As for DFNIIECSPGRGVHHDDWEP, the amyloid nucleation score entry is “inactive”.
In the case of VRSLN it was 0.058 ± 0.6.
In the case of RCAMRVSARMSRSTGISRLR it was 1.64 ± 0.15.
For WTLLNCRGSEVKIGRCTKMG, the amyloid nucleation score entry is “inactive”.
With RMVMSE, the amyloid nucleation score came to 0.16 ± 0.31.
In turn, LLHSSYIIK gave an amyloid nucleation score of 0.115 ± 1.
In the case of CSLAFVHRAIFSMSLLHSET it was 0.136 ± 0.4; in that of FPTFQSLRDPRHMLFRGNFM, -0.317 ± 1.1; in that of VTYLMCLWAGVARG, -0.324 ± 1.1.
NSVRNTYWKAPGNLTEGVSG returned an amyloid nucleation score of -0.054 ± 0.4.
The substance VMYKAFFRYFGR registered an amyloid nucleation score of 1.71 ± 0.24.
With SMFLMSCTDGVFHNRNLHVI, the amyloid nucleation score is -0.662 ± 0.44.
In the case of MFYPRSSFSWDFPTFGLSLP it was “inactive”; in that of ASAGCTTGTLGGPHHRHMIV, 0.523 ± 0.26.
In turn, DQLVQGYGNTGWQLGYRMAG returned an amyloid nucleation score of 5.35 ± 0.056.
On to VSIVRYIFSPNWFVTIASIY, for which the amyloid nucleation score is -1.51 ± 0.49.
VGSVICMFMCWFA gave an amyloid nucleation score of 4.75 ± 0.036.
Turning to TLPRSII, the amyloid nucleation score is -0.113 ± 1.1.
Regarding DNSVHCSFSYFNLPELKGCY, the amyloid nucleation score came to 3.8 ± 0.065.
Consider LDKKVSVSAVRLTRRDASEE, for which the amyloid nucleation score turned out to be 2.25 ± 0.098.
Substance FMLRTAQSHISSTVTSVKQA gave an amyloid nucleation score of 0.064 ± 0.4.
The substance GEQMWGYCRLYRGTGRGALG gave an amyloid nucleation score of 1.85 ± 0.16.
For the substance VISQRLFS, the amyloid nucleation score was -0.155 ± 0.74.
As for DVKKYLRGYCIRPCLLSYLI, the figure is -0.807 ± 0.79; as for CLTYYTCLTWKMPCGIRHQG, 0.428 ± 0.22.
Take CVLVFIVNKTYA: the amyloid nucleation score was determined as 4.13 ± 0.06.
As to RWVSGQTYVVLSIVR, the amyloid nucleation score amounted to 0.242 ± 0.28.
In the case of SFVTYSNSLFFTISSDSK it was 6.826 ± 0.054; in that of QNESHIH, 6.31 ± 0.079; in that of RAMYECF, 0.604 ± 0.41.
In turn, AYRSDCIRHGGPFAGYNICI had an amyloid nucleation score of 0.044 ± 1.1.
MTSRVETSKCNCSLQVWRPL came in with an amyloid nucleation score of 0.579 ± 0.37.
For the substance SIKGGSIEIEMYELESWVQL, the amyloid nucleation score is -0.791 ± 1.1.
Regarding LILGYFRKELFKNASFVLNF, the amyloid nucleation score came out at 4.05 ± 0.066.
As for WRIYQDTFCLSIS, the figure is 3.87 ± 0.076; as for FDWFNAYSF, 0.092 ± 0.61; as for SMASGILCDAAYNACSQGCG, 0.632 ± 0.48.
The substance GVISYMTSRGRGLSNNMSNW returned an amyloid nucleation score of -0.15 ± 0.56.
In the case of VGAMSIMKVLNFHDDILTVT it was “inactive”; in that of VCDFNVLDGCGNPGLL, -0.67 ± 1.1.
As for YKNVAFCFVRMFFEGHSINC, the figure is -1.45 ± 0.76; as for CLIVFIADTAAYIKVSMSSV, “inactive”; as for MCGSDNYILGLFWVYFMTNF, “inactive”.
In the case of FLVIVQPSHFGCSKSNKGVW it was 0.453 ± 0.66.
Regarding TLVSWYSTTEPAC, the amyloid nucleation score was -1.13 ± 0.78.
Take TLYWNKSQRYGLLWFKFVSL: the amyloid nucleation score is -0.277 ± 1.
In the case of IRFANVPSRNKFH it was 0.486 ± 0.36; in that of LGSLDSVFNSFHRAGS, -0.518 ± 0.56.
The substance ISNGYPVDRHSWVNILSLT showed an amyloid nucleation score of 1.23 ± 0.47.
Substance TNCHLFVSFFLCVDVYTVVC came in with an amyloid nucleation score of 4.72 ± 0.063.
Substance LMCNKESSNPICGLWVCFWA registered an amyloid nucleation score of 9.489 ± 0.037.
As to NQTCTE, the amyloid nucleation score came to 0.7 ± 0.66.
Regarding VLCSCCLVVNIVNVLSVHSY, the amyloid nucleation score was 8.363 ± 0.06.
As to MLQYWMPVLGWWAFMRNLAF, the amyloid nucleation score is 1.71 ± 0.47.
In the case of GPWAAVVRGFCPKGDKRSCG it was -0.304 ± 0.41; in that of NIEVWMFYSLMNMNEA, -0.509 ± 1.1; in that of CSMMNLKSFLADCSIPAFTG, -0.962 ± 0.64.
For DTKTIRFLYKRYRLSWQVSE, the amyloid nucleation score stood at 4.587 ± 0.04.
For the substance FDLCTLFYNSRFHIIRYWVT, the amyloid nucleation score entry is “inactive”.
On to IKILLCRSGARIGVSCDMSC, for which the amyloid nucleation score is 0.706 ± 0.74.
As for SDYVYKFSVAWWVPVSSVVK, the figure is 0.701 ± 0.38; as for VVGFSMFYKWDMNSMVSRMS, 2.27 ± 0.084.
Consider KKLALKVVVSNCFKK, for which the amyloid nucleation score amounted to 5.991 ± 0.048.
As for SLMWDGANLYCMMVYSSVRN, the amyloid nucleation score came out at 0.182 ± 1.1.
As for SIFPRTCSNSACLWISSRKL, the amyloid nucleation score stood at 4.259 ± 0.042.
Substance RFGIGSLRSTSHVAGLMVMS registered an amyloid nucleation score of 0.733 ± 0.44.
Substance SMYPGLDT yielded an amyloid nucleation score of -0.353 ± 0.79.
As for VYLVRKWRSGWRYLTRVI, the figure is 1.24 ± 0.41; as for SRPMTWGRKDVGSGSLQDYA, 0.248 ± 0.33; as for MMFTSQTGDLLFF, 4.89 ± 0.051.
As for GSLGASVSNFGVAYSLCATR, the figure is -0.359 ± 0.65; as for WDLLRVM, 0.312 ± 0.8; as for LVQMLVSV, -0.342 ± 1.
The substance SFKVMYKENNTNLGSLLWDG returned an amyloid nucleation score of 0.049 ± 0.21.
Regarding MRRRMQSWANRSLSTGWGMF, the amyloid nucleation score is -0.091 ± 0.38.
The substance KHMYYYCLYANELQVAVEMN registered an amyloid nucleation score of -0.235 ± 0.45.
As for MKPAWYIVNEWLSGTRLECM, the amyloid nucleation score is -0.035 ± 0.49.
GNRFPRPSPQGIIYKLLLFR had an amyloid nucleation score of 2.92 ± 0.11.
For VKYRDIMSRGSVVRQNDKVS, the amyloid nucleation score result is “inactive”.
CISSMVALMGGPWNEMLGTW gave an amyloid nucleation score of 0.767 ± 0.74.
Substance CSESFGCRTPPSLNMLVCN yielded an amyloid nucleation score of -0.729 ± 1.1.
SLTGSQSGQGDLCVLVRYNH registered an amyloid nucleation score of 3.84 ± 0.12.
Turning to SMLSSMYFKFPL, the amyloid nucleation score is 2.07 ± 0.16.
On to GMDSFPFCMCRDCPYWGYDM, for which the amyloid nucleation score is -0.745 ± 0.32.
On to MVVLCHINLYEYGSFNPSST, for which the amyloid nucleation score worked out at 6.31 ± 0.077.
For the substance LTGCAKLGSLKLSLAPVYVD, the amyloid nucleation score was found to be 0.811 ± 0.82.
With VERLYDAYQIF, the amyloid nucleation score worked out at 0.316 ± 0.4.
In the case of NSAPRGQCRSVFGLMYSYSI, the amyloid nucleation score entry is “inactive”.
In turn, FDALY yielded an amyloid nucleation score of 0.025 ± 0.25.
In turn, RLDRVIFY had an amyloid nucleation score of 1.85 ± 0.099.
As for YEPSATEPRLRRFHGEARLL, the amyloid nucleation score was 0.32 ± 0.65.
EARVSRLFT had an amyloid nucleation score of 0.542 ± 0.18.
Consider FLWKRVVLSREEMAMDTTGS, for which the amyloid nucleation score stood at 5.47 ± 0.066.
